Patent US20130109846A1 (published 2013)

These binders were tested against human CD28 (human, UniProt P10747 19-220) (assay: cell-based or functional assay).

Row | Binder | Luciferase assay (EC50) [nM] | MLR assay (EC50) [nM]
1 | 1h-99-250 (other) VH: EVQLLESGGGLVQPGGSLRLSCAASGFTFDSANMSWARQAPGKGLEWVSWIEATGGQTFYADSVKGRFTISRDNSKNTLYLQMNSLRAEDTAVYYCAKSPFGPLYGFDYRGQGTLVTVSS | 9 | 8
2 | 1h-99-264 (other) VH: EVQLLESGGGLVQPGGSLRLSCAASGFTFDKSNMSWVRQAPGKGLEWVSWIEAPGVQTFYADSVRGRFTISRDNSKNTLYLQMNSLRAEDTAVYYCARSPFGPLYGFDYRGQGTLVTVSS | 5 | 3
3 | 1h-99-256 (other) VH: EVQLLESGGGLVQPGGSLRLSCAASGFTFDSANMSWVRQAPGKGLEWVSWIEAIGVQTFYADSVKGRFTISRDNSKNTLYLQMNSLRAEDTAVYYCAKSPFGPLYGFDYRGQGTLVTVSS | 9 | 7
4 | 1h-99-263 (other) VH: EVQLLESGGGLVQPGGSLRLSCAASGFTFYKANMSWVRQAPGKGLEWVSWIEASGVQTFYADSVKGRFTISRDNSKNTLYLQMNSLRAEDTAVYYCAKSPFGPLYGFDYRGQGTLVTVSS | 6 | 4
5 | 1h-99-266 (other) VH: EVQLLESGGGLVQPGGSLRLSCAASGFTFYRSNMSWVRQAPGKGLEWVSWIEAPGVQTFYADSVRGRFTISRDNSKNTLYLQMNSLRAEDTAVYYCARSPFGPLYGFDYRGQGTLVTVSS | 8 | 4
6 | 1h-99-268 (other) VH: EVQLLESGGGLVQPGGSLRLSCAASGFTFKSANMSWVRQAPGKGLEWVSWIEAPGVQTFYADSVRGRFTISRDNSKNTLYLQMNSLRAEDTAVYYCARSPFGPLYGFDYRGQGTLVTVSS | 11 | 13
7 | 1h-99-260 (other) VH: EVQLLESGGGLVQPGGSLRLSCAASGFTFDSANMSWARQAPGKGLEWVSWIEANGPQTFYADSVKGRFTISRDNSKNTLYLQMNSLRAEDTAVYYCAKSPFGPLYGFDYRGQGTLVTVSS | 11 | 13
8 | 1h-99-254 (other) VH: EVQLLESGGGLVQPGGSLRLSCAASGFTFDSANMSWARQAPGKGLEWVSWIESSGGQTFYADSVKGRFTISRDNSKNTLYLQMNSLRAEDTAVYYCAKSPFGPLYGFDYRGQGTLVTVSS | 11 | 7
9 | 1h-99-262 (other) VH: EVQLLESGGGLVQPGGSLRLSCAASGFTFYKANMSWVRQAPGKGLEWVSWIEAPGVQTFYADSVRGRFTISRDNSKNTLYLQMNSLRAEDTAVYYCARSPFGPLYGFDYRGQGTLVTVSS | 6 | 8
10 | 1h-99-267 (other) VH: EVQLLESGGGLVQPGGSLRLSCAASGFTFYRSNMSWVRQAPGKGLEWVSWIEASGVQTFYADSVKGRFTISRDNSKNTLYLQMNSLRAEDTAVYYCAKSPFGPLYGFDYRGQGTLVTVSS | 6 | 4
11 | 1h-35-2 (other) VL: DIQMTQSPSSLSASVGDRVTITCRASQYIGSALGWYQQKPGKAPKLLIYRASHLQSGVPSRFSGSGSGTDFTLTISSLQPEDFATYYCQQLAIRPFTFGQGTKVEIKR | 279 | 197
12 | 1h-35-5 (other) VL: DIQMTQSPSSLSASVGDRVTITCRASQYIGSAISWYQQKPGRAPKLLIYRASYLQSGVPSRFSGSGSGTDFTLTISSLQPEDFATYYCQQLAIRPFTFGQGTKVGIKR | 261 | 248

The remaining lines, values ahead:

Row | Luciferase assay (EC50) [nM] | MLR assay (EC50) [nM] | Binder
13 | 4000 | > 7000 | 1h-115 (other) VH: EVQLLESGGGLVQPGGSLRLSCAASGFTFSEYSMAWVRQAPGKGLEWVSHISRDGEFTYYADSVKGRFTISRDNSKNTLYLQMNSLRAEDTAVYYCAKGNADLGWVQPHLFVYWGQGTLVTVSS
14 | > 7000 | – | 1h-100 (other) VH: EVQLLESGGGLVQPGGSLRLSCAASGFTFESYWMSWVRQAPGKGLEWVSTIADTGGLTYYADSVKGRFTISRDNSKNTLYLQMNSLRAEDTAVYYCAKVAYVLDDQPAFDYWGQGTLVTVSS
15 | 12 | 13 | 1h-99-278 (other) VH: EVQLLESGGGLVQPGGSLRLSCAASGFTFPHSNMSWARQAPGKGLEWVSWIEDTGTQTFYADSVKGRFTISRDNSKNTLYLQMNSLRAEDTAVYYCAKSPFGPLYGFDYRGQGTLVTVSS
16 | 6 | 10 | 1h-99-275 (other) VH: EVQLLESGGGLVQPGGSLRLSCAASGFTFKDKNMSWARQAPGKGLEWVSWIEDTGTQTFYADSVKGRFTISRDNSKNTLYLQMNSLRAEDTAVYYCARSPFGPLYGFDYRGQGTLVTVSS
17 | 6 | 6 | 1h-99-297 (other) VH: EVQLLESGGGLVQPGGSLRLSCAASGFTFDSANMSWARQAPGKGLEWVSWIEAIGVQTFYADSVKGRFTISRDNSKNTLYLQMNSLRAEDTAVYYCAKSPFGPLYGFDYRGQGTLVTVSS
18 | 5 | 18 | 1h-99-276 (other) VH: EVQLLESGGGLVQPGGSLRLSCAASGFTFNRANMSWARQAPGKGLEWVSWIEDTGTQTFYADSVKGRFTISRDNSKNTLYLQMNSLRAEDTAVYYCAKSPFGPLYGFDYRGQGTLVTVSS
19 | 4 | 6 | 1h-99-270 (other) VH: EVQLLESGGGLVQPGGSLRLSCAASGFTFYKANMSWARQAPGKGLEWVSWIEASGVQTFYADSVKGRFTISRDNSKNTLYLQMNSLRAEDTAVYYCAKSPFGPLYGFDYRGQGTLVTVSS
20 | 6 | 9 | 1h-99-277 (other) VH: EVQLLESGGGLVQPGGSLRLSCAASGFTFDSANMSWARQAPGKGLEWVSWIEAVGVQTFYADSVKGRFTISRDNSKNTLYLQMNSLRAEDTAVYYCAKSPFGPLYGFDYRGQGTLVTVSS
21 | 10 | 5 | 1h-99-269 (other) VH: EVQLLESGGGLVQPGGSLRLSCAASGFTFKSANMSWVRQAPGKGLEWVSWIEASGVQTFYADSVKGRFTISRDNSKNTLYLQMNSLRAEDTAVYYCAKSPFGPLYGFDYRGQGTLVTVSS
22 | 3100 | – | 1h-114 (other) VH: EVQLLESGGGLVQPGGSLRLSCAASGFTFASYSMAWVRQAPGKGLEWVSTIMPSGQRTYYADSVKGRFTISRDNSKNTLYLQMNSLRAEDTAVYYCAKNQSHQRRGIFDYWGQGTLVTVSS
